One block for each binder: values may come before it.
Experiments:
Settings in all cases: both partners purified
[1] = target: T1, recombinant human IL-22R1 (rhIL-22 Rα1) (human, UniProt Q8N6P7 16-228); test: ELISA; receptor (IL-22R1 or IL-22R1-IgG Fc) coated on MaxiSorp plate; serially diluted IL-22 (Fc chimera or His tag); detection by mouse anti-human IgG (Fc)-HRP or anti-His monoclonal antibody-HRP; BSA wells as control
T1 construct: recombinant human IL-22 receptor alpha (rhIL-22 Rα1); also called commercial IL-22R1; source: bought: R&D Systems
T1 sequence (looked up): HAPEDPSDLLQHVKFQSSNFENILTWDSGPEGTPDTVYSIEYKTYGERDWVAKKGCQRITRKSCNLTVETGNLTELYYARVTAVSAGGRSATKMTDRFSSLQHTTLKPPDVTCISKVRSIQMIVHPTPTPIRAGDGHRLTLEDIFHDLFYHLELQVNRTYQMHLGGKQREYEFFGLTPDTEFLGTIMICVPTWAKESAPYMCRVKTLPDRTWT

[2] = target: T2, recombinant human IL-22R1 (rhIL-22 Rα1) (human, UniProt Q8N6P7 16-228); test: ELISA; IL-22 on IL-22R1 coated on a MaxiSorp 96-well plate (Fig. S1)
T2 construct: human interleukin-22 receptor alpha (IL-22R1), recombinant soluble protein; Probably the extracellular part; also called IL-22 receptor alpha; commercial IL-22R1; source: bought: R&D Systems
T2 sequence (looked up): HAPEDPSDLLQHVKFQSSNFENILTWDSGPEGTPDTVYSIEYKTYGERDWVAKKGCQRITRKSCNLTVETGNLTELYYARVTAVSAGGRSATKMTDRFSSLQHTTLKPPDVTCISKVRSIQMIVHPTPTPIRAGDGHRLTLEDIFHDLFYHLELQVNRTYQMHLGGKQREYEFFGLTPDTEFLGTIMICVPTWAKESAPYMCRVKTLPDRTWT

[3] = target: T2, recombinant human IL-22R1 (rhIL-22 Rα1); test: ELISA; competition: human IL-22R1 coated (1 µg/ml) on MaxiSorp; purified ABD-derived variants serially diluted in PBS-T with 1% BSA with 1 nM IL-22 Fc chimera; IL-22-Fc detected by anti-human IgG (Fc) HRP

binding result [1]: binds
B1: recombinant human IL-22 protein, Fc Chimera (Fc fusion, UniProt Q9GZX6 34-179, looked up)
chain: APISSHCRLDKSNFQQPYITNRTFMLAKEASLADNNTDVRLIGEKLFHGVSMSERCYLMKQVLNFTLEEVLFPQSDRFQPYMQEVVPFLARLSNRLSTCHIEGDDLHIQRNVQKLKDTVKKLGESGEIKAIGELDLLFMSLRNACI
notes: human interleukin-22 fused to human IgG Fc; also called IL-22-IgG Fc cytokine; IL-22 (Fc chimera); source: bought: Abcam

binding result [2]: binds
B2: human IL-22 (ligand, UniProt Q9GZX6 34-179, looked up)
chain: APISSHCRLDKSNFQQPYITNRTFMLAKEASLADNNTDVRLIGEKLFHGVSMSERCYLMKQVLNFTLEEVLFPQSDRFQPYMQEVVPFLARLSNRLSTCHIEGDDLHIQRNVQKLKDTVKKLGESGEIKAIGELDLLFMSLRNACI
notes: human interleukin-22; it may be m16 or m17; also called hIL-22; IL-22 cytokine; source: bought: Abcam (cell assays)

binding result [3]: binds
B3: recombinant human IL-22 protein, Fc Chimera (Fc fusion, UniProt Q9GZX6 34-179, looked up)
chain: APISSHCRLDKSNFQQPYITNRTFMLAKEASLADNNTDVRLIGEKLFHGVSMSERCYLMKQVLNFTLEEVLFPQSDRFQPYMQEVVPFLARLSNRLSTCHIEGDDLHIQRNVQKLKDTVKKLGESGEIKAIGELDLLFMSLRNACI
notes: human interleukin-22; also called IL-22-Fc; IL-22 cytokine; source: bought: Abcam

From article PMC11446014, “Human IL-22 receptor-targeted small protein antagonist suppress murine DSS-induced colitis” (Cell Communication and Signaling : CCS, 2024)
